Experimental findings from IntAct's records for PubMed 26601939 are described below.

Sequences and labels used below:
B1: Syndecan-2 (Rattus norvegicus (Rat)), P34900 (parent)
chain: MQRAWILLTLGLMACVSAETRAELTSDKDMYLDSSSIEEASGLYPIDDDDYSSASGSGAYEDKGSPDLTTSQLIPRISLTSAAPEVETMTLKTQSITPTQTESPEETDKKEFEISEAEEKQDPAVKSTDVYTEKHSDNLFKRTEVLAAVIAGGVIGFLFAIFLILLLVYRMRKKDEGSYDLGERKPSSAAYQKAPTKEFYA
partner: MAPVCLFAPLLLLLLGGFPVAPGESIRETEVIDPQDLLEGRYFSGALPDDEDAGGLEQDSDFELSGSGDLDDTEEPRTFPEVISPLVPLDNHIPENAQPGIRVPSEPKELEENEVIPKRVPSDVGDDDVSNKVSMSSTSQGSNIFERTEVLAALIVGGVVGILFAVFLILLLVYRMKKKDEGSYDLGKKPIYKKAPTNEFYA
B2: Syndecan-2 (Rattus norvegicus (Rat)), P34900 (parent)
chain: B1 chain
partner: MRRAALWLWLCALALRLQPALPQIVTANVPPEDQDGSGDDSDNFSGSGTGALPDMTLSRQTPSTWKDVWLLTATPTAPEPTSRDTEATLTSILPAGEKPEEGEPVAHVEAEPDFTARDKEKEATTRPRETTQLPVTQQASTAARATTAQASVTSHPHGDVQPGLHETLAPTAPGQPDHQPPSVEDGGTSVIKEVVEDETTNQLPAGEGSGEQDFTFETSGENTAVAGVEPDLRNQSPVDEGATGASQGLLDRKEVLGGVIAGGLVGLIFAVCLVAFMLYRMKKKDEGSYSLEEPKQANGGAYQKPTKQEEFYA
B3: Syndecan-1 (Rattus norvegicus (Rat)), P26260 (parent)
chain: B2 partner
partner: B1 chain
B4: Syndecan-4 (Rattus norvegicus (Rat)), P34901 (parent)
chain: B1 partner
B5: Syndecan-4 (Rattus norvegicus (Rat)), P34901 (parent)
chain: B1 partner
partner: B2 partner
B6: Syndecan-4 (Rattus norvegicus (Rat)), P34901 (parent)
chain: B1 partner
partner: B1 chain
B7: Syndecan-2 (Rattus norvegicus (Rat)), P34900 (parent)
chain: B1 chain

Variants of B1 are the subject of one assay. Conditions: with sdc4_rat Sdc4, P34901.
For F162Y, the “effect of a mutation on the interaction” value is reported as “with no effect”.
Still for that read-out and setting: under F157Y stands “disrupting interaction strength”.
On the same count and under the same terms, under F159Y stands “decreasing interaction strength”.

In another assay the parent is B1. The settings on record: with sdc4_rat Sdc4, P34901. This is another data set of the same source.
Consider F159Y, for which the “effect of a mutation on the interaction” value was “decreasing interaction”.

The variants in another assay derive from B1. The settings on record: with sdc4_rat Sdc4, P34901. This is another data set of the same source.
As for F159Y, the “effect of a mutation on the interaction” value is given as “disrupting interaction strength”.

The variants in a further assay derive from B2. Conditions: with sdc1_rat Sdc1, P26260.
For F162Y, the “effect of a mutation on the interaction” value is recorded as “with no effect”.

Variants of B3 are the subject of another assay. Conditions: with sdc2_rat Sdc2, P34900.
Take F269Y;C272F: the “effect of a mutation on the interaction” value is on record as “disrupting interaction strength”.
In the case of C272F, the “effect of a mutation on the interaction” value is listed as “with no effect”.
The same measure, in the same setting: under F269Y stands “disrupting interaction strength”.

Variants of B4 are the subject of the next assay. The settings on record: with sdc3_rat Sdc3, P33671.
Sequence of sdc3_rat Sdc3, P33671 (P33671 whole entry): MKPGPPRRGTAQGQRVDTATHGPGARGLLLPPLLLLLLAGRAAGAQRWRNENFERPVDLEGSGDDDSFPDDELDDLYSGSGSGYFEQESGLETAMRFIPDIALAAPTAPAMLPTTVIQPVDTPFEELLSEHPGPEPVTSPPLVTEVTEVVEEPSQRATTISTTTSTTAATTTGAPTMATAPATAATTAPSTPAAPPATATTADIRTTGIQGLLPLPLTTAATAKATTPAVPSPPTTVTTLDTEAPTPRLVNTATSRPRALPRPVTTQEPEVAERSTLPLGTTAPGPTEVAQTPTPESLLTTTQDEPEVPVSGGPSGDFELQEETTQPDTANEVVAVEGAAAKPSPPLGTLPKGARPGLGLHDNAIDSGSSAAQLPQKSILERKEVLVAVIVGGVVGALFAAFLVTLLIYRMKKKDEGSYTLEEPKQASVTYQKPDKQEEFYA
As to F164Y, the “effect of a mutation on the interaction” value is “decreasing interaction strength”.

The variants in the next assay derive from B5. The settings on record: with sdc1_rat Sdc1, P26260.
Consider F164Y, for which the “effect of a mutation on the interaction” value is given as “decreasing interaction strength”.

The variants in a further assay derive from B6. Conditions: with sdc2_rat Sdc2, P34900.
As for F164Y, the “effect of a mutation on the interaction” value is recorded as “decreasing interaction strength”.

The variants in a further assay derive from B7. The settings on record: with sdc3_rat Sdc3, P33671.
Regarding F159Y, the “effect of a mutation on the interaction” value is reported as “decreasing interaction strength”.
